Columns and labels:
HA-p73α = target: T1, HA-p73α (Homo sapiens, UniProt O15350); experiment: Ubiquitination assay in COS7 cells; format: cell-based; conditions: COS7, HA-p73α and HA-ubiquitin, MG-132 (FIG. 18, 19)
T1 construct: expressed in transfected cells; host or cells: COS7
T1 sequence (O15350 1-636): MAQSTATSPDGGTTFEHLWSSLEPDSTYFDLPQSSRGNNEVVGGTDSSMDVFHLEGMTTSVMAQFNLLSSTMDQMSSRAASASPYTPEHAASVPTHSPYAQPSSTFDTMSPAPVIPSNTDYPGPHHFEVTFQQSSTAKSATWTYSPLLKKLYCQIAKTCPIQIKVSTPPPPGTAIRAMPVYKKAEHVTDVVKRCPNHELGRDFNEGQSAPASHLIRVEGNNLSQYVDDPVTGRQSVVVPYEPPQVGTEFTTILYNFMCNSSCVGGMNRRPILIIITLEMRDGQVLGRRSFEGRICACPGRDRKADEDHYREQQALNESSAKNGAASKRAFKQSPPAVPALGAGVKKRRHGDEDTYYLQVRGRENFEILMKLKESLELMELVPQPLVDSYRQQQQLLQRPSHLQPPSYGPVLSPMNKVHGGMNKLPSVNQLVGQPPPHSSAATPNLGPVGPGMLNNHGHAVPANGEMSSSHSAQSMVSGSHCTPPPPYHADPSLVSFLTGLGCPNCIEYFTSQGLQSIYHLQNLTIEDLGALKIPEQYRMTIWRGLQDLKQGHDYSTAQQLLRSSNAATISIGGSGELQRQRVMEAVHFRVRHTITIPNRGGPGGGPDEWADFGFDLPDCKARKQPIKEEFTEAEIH
Method: COS7 cells were transiently transfected with a constant amount of expression plasmids encoding HA-p73α and HA-Ub in the presence or absence of varying amounts of IKK-α expression plasmids. After […] from the transfection, the cells were exposed for 6 hours to a proteasome inhibitor MG-132 (final concentration: 20 μM), and lysates from the whole cells were first subjected to immunoprecipitation with an anti-p73 monoclonal antibody and then to immunoblot using an anti-HA monoclonal antibody (12CA5; Roche Molecular Biochemicals) to analyze ubiquitination levels.
As described by Lee, C.-W. et al., Oncogene 18: 4171-4181 (1999), the steady-state level of p73 was regulated at least partially by the proteolytic process through the ubiquitin-proteasome pathway. Whether IKK-α inhibited the ubiquitination of p73 was investigated. COS7 cells were transfected with expression plasmids for HA-p73α and HA-ubiquitin together with or without varying amounts of IKK-α or FLAG-IKK-β expression plasmids. After 48 hours of the transfection, lysates from the whole cells were analyzed by immunoprecipitation and immunoblot and examined for the presence of p73α containing HA-ubiquitin.

p53 = experiment: Luciferase reporter assay, p53-dependent transcriptional activation in H1299 cells; format: cell-based, human; conditions: H1299, coexpression with p53 (FIG. 22)
Method: H1299 cells deficient in p53 were seeded at a density of 5×10^4 cells/well onto a 12-well tissue culture dish and transiently transfected with 100 ng of luciferase reporter construct (which carried a p53/p73-responsive element derived from a p21^WAF1, Bax, or MDM2 promoter), 10 ng of pRL-TK Renilla luciferase cDNA, and 25 ng of given expression plasmid (p53, HA-p73α, or HA-p73β) together with or without varying amounts of IKK-α or FLAG-IKK-β expression plasmids. The total amount of DNA per transfection was kept constant (510 ng) with a pcDNA3 empty plasmid. After 48 hours from the transfection, the cells were washed twice with ice-cold PBS and suspended in passive lysis buffer (Promega). Both firefly and Renilla luciferase activities were assayed by use of dual-luciferase reporter assay system (Promega) according to the instruction. […] intensity was measured with TD-20 luminometer (Turner Design). The firefly luciferase signal was normalized based on the Renilla luciferase signal. Results obtained from at least 3 transfections were indicated by mean value±standard deviation.
To explore the functional implication of interaction between IKK-α and p73, the effect of IKK-α on p73-mediated transcriptional activation was first examined. […]

H1299 cells = experiment: Apoptosis assay (trypan blue / Red-Gal double staining), p73α-dependent; format: cell-based, human; conditions: H1299, coexpression with HA-p73α, 48 hours (FIG. 25-27)
Method: To detect apoptosis via p73α and IKK overexpression, H1299 cells were seeded at a density of 1.5×10^4 cells/well onto a 6-well tissue culture dish. Next day, the cells were transiently transfected with 50 ng of β-galactosidase expression plasmid and 50 ng of HA-p73α expression plasmid in the presence or absence of varying amounts of IKK-α or IKK-β expression vectors (100, 200, or 400 ng). After 48 hours of the transfection, the cells were washed with ice-cold PBS and stained at room temperature for 10 minutes with 0.4% trypan blue (PBS solution). Then, the cells were washed twice with PBS, then fixed for 10 minutes in PBS containing 2.5% glutaraldehyde, 1 mM magnesium chloride, and 2 mM EGTA, and stained for 2 hours with Red-Gal (Research Organics) according to the method described in Bayon, Y. et al., Mol. Cell. Biol. 23: 1061-1074 (2003). Red-Gal was used as a marker for visualizing the transfected cells to evaluate the degree of apoptosis occurring in the transfectants. […] Results were indicated by an average of three independent transfections (each performed three times or more).
Potential effect(s) of IKK-α on p73-dependent biological functions such as the regulation of apoptosis was examined. […] After 48 hours of the transfection, the cells were subjected to double staining with trypan blue (nonviable cells) and Red-Gal (transfected cells), and the number of purple cells was scored.

B1: IKK-α: IKK-α protein, amino acid sequence SEQ ID NO: 24, expressed from plasmid; apoptosis enhancer (protein, listed as Homo sapiens)
chain: MERPPGLRPGAGGPWEMRERLGTGGFGNVCLYQHRELDLKIAIKSCRLELSTKNRERWCHEIQIMKKLNHANVVKACDVPEELNILIHDVPLLAMEYCSGGDLRKLLNKPENCCGLKESQILSLLSDIGSGIRYLHENKIIHRDLKPENIVLQDVGGKIIHKIIDLGYAKDVDQGSLCTSFVGTLQYLAPELFENKPYTATVDYWSFGTMVFECIAGYRPFLHHLQPFTWHEKIKKKDPKCIFACEEMSGEVRFSSHLPQPNSLCSLIVEPMENWLQLMLNWDPQQRGGPVDLTLKQPRCFVLMDHILNLKIVHILNMTSAKIISFLLPPDESLHSLQSRIERETGINTGSQELLSETGISLDPRKPASQCVLDGVRGCDSYMVYLFDKSKTVYEGPFASRSLSDCVNYIVQDSKIQLPIIQLRKVWAEAVHYVSGLKEDYSRLFQGQRAAMLSLLRYNANLTKMKNTLISASQQLKAKLEFFHKSIQLDLERYSEQMTYGISSEKMLKAWKEMEEKAIHYAEVGVIGYLEDQIMSLHAEIMELQKSPYGRRQGDLMESLEQRAIDLYKQLKHRPSDHSYSDSTEMVKIIVHTVQSQDRVLKELFGHLSKLLGCKQKIIDLLPKVEVALSNIKEADNTVMFMQGKRQKEIWHLLKIACTQSSARSLVGSSLEGAVTPQTSAWLPPTSAEHDHSLSCVVTPQDGETSAQMIEENLNCLGHLSTIIHEANEEQGNSMMNLDWSWLTE
amount of ubiquitinated p73α (HA-p73α): decreased
p53-responsive reporter gene activity (p53): not induced
number of cells undergoing p73α-dependent apoptosis (H1299 cells): increased the number of cells undergoing apoptosis

— patent publication US7618787B2, “Method of screening compound capable of accelerating or inhibiting apoptosis, apoptosis accelarator and apoptosis inhibitor” (Hisamitsu Pharmaceutical Co., Inc., priority 2004, dated 2009)
